The values that follow are results of earlier work, collected in PMC3343272.

A word on the Kd: it is the concentration at which binding is half-saturated.

The target in the data set is Nonmuscle myosin IIA M32 1907-1938 (Homo sapiens) (UniProt P35579). In words: kinetic assay.
Nonmuscle myosin IIA M32 1907-1938 (Homo sapiens), sequence (P35579 1907-1938): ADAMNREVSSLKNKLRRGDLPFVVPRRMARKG

S100A4, sequence (P26447 2-101): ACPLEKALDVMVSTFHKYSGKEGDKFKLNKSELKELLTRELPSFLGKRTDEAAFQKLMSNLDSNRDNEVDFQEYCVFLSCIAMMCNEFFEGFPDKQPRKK

Consider S100A4 (from UniProt P26447), for which the equilibrium dissociation constant (Kd) was 3000 nM.
